Publication PMC8994484

Target: ofCP (Olindias formosa)
Experiment: SEC

stoichiometry N: 2
Substance: ofCP (natural protein)
